Laboratory results: patent US20220135672A1 (Hoffmann-La Roche, published 2022)

What was measured:
[1] = molecular target: T1, rabbit-CD19-GPI anchor-FLAG-tag fusion polypeptide (on transfected CHO-S / HEK293F cells) (rabbit; human); assay: FACS, HEK293F transfected with CD19 expression plasmid, detection with anti-mIgG-APC
T1 sequence: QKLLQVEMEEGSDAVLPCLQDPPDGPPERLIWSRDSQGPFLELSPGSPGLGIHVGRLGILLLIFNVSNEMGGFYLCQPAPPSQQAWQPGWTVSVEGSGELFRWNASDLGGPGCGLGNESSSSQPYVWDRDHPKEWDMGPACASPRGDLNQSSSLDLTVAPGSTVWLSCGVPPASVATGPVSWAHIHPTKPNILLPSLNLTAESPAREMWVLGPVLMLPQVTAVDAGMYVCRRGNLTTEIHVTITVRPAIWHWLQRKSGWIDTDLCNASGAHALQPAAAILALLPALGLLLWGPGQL

[2] = molecular target: T2, rabbit CD19 (native, on the surface of rabbit B-cells) (rabbit); assay: FACS, rabbit PBMC
T2 construct: Natural CD19 on rabbit PBMC / B-cells; also called rbCD19; native rabbit CD19
T2 chain: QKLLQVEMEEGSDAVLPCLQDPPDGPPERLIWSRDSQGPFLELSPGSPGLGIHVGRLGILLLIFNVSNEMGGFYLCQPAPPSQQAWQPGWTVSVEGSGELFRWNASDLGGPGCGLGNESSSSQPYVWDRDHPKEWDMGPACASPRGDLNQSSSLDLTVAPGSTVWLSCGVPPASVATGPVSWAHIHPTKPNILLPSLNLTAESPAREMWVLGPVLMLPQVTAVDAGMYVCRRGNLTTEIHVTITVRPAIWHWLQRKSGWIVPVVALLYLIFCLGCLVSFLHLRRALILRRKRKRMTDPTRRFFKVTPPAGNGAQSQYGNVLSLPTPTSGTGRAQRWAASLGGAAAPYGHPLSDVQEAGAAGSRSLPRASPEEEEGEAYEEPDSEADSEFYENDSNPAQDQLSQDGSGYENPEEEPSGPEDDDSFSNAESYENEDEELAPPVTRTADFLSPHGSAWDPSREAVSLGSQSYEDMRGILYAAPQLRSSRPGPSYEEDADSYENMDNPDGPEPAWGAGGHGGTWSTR
Protocol: FACS analysis was applied for screening of hybridomas and to identify those hybridomas that secrete antibodies against rabbit CD19. All IgG-producing hybridomas were screened by FACS analysis of rabbit peripheral blood mononuclear cells (PBMCs) double stained with a rabbit IgM binding antibody for B-cell identification.
Freshly isolated rabbit (PBMCs) were incubated with FITC labeled anti-rabbit IgM antibody (Southern Biotech) and IgG-positive hybridoma supernatants on ice. After 45 min. incubation the PBMCs were washed once with ice cold PBS and resuspended in an PE-labeled anti-mouse IgG antibody (Invitrogen) binding the murine IgG of the hybridoma supernatant. After another 45 min. incubation on ice the cells were washed again once with ice cold PBS. Finally, the PBMCs were resuspended in ice cold PBS and immediately subjected to the FACS analyses. DAPI-HCl in a concentration of 2 μg/ml (Cayman) was added prior to the FACS analyses to discriminate between dead and live cells. A Becton Dickinson FACS Canto II device equipped with a computer and the FACSDiva software (BD Biosciences) were used for the analysis.

[3] = molecular target: T1, rabbit-CD19-GPI anchor-FLAG-tag fusion polypeptide (on transfected CHO-S / HEK293F cells) (rabbit; human); assay: FACS, CHO-S transfected with CD19 expression plasmid, detection with anti-mIgG-APC

B1: antibody 1H2 (mouse monoclonal anti-rabbit CD19 antibody) (antibody, mouse IgG2a, kappa, V domains shown)
VH: QVQLQQSGPEVVKPGASVRMSCKASGYIFTNHYIHWMKQRPGQGLEWVGCIYPGNVNSNYNEKFKGKATLTADKSSSTAYLQLSSLTSEDSAVYFCARGGYYGSSYSWFAYWGQGTLVIVSA
VL: DIVMTQSPATLSVTPGDRVSLSCRASQSISDFLHWYQQSSHESPRLLIKYASQSISGIPSRFSGSGSGSDFTLTINSVEPEDVGVYYCQNGHSFPYTFGGGTNLEIKR
notes: Mouse IgG from hybridoma; the chains are built here from variable domain plus constant region so that no leader is included; Tested as hybridoma supernatant, and later purified and labelled with Alexa 647 or biotin; also called clone 1H2; anti-CD19 A647
- stained cells, absolute [n] [1]: 7290 n
- stained cells, relative to total number [%] [1]: 35.9%
- Ratio Q2/IgM (%) [2]: 93.2%
- stained cells, absolute [n] [3]: 975 n
- stained cells, relative to total number [%] [3]: 4.6%
